Assay [1] has as its target antibody C1, specific for the CRP-derived 8-mer PET sequence YEVQGEVF
Nature of the assay: peptide competition ELISA; soluble peptide competes with coated target peptide for C1. Background: ELISA stands for enzyme-linked immunosorbent assay.

The target in assay [2] is antibody P1, specific for the PSA-derived 8-mer PET sequence EPAELTDA
Nature of the assay: peptide competition ELISA.

Assay [3] has the same target. Nature of the assay: peptide competition ELISA; soluble peptide competes with coated target peptide for P1.
For assay [4], the target named is antibody C1, specific for the CRP-derived 8-mer PET sequence YEVQGEVF
Nature of the assay: peptide competition ELISA.

Where no end group is shown, it is not given here.

One may read the IC50 as the midpoint of a concentration-inhibition curve. Low readings indicate greater potency, high ones weaker potency.

YEVQGEVF [CRP-derived 8-mer PET peptide YEVQGEVF] came in with an IC50 in assay [1] of 1 µM.
DPTQLTDA [nearest-neighbor 8-mer peptide DPTQLTDA] yielded a fold higher concentration without effect, against the antigen PET EPAELTDA in assay [2] of 25000 fold. Further, in assay [3], the IC50 is > 1000 µM.
In the case of YEVLGEEF [nearest-neighbor 8-mer peptide YEVLGEEF], in assay [4], the fold higher concentration without effect, against the antigen PET YEVQGEVF was > 1000 fold. Further, the IC50 in assay [1] is > 1000 µM.
The like results for VEVNGEVF [nearest-neighbor 8-mer peptide VEVNGEVF] were, in that order, > 1000 fold and > 1000 µM.
In assay [2], EPVELTSA [nearest-neighbor 8-mer peptide EPVELTSA] registered a fold higher concentration without effect, against the antigen PET EPAELTDA of 25000 fold. Moreover, the 50% inhibitory concentration (IC50) in assay [3] is > 1000 µM.
The molecule EPAELTDA (not fully specified) [PSA-derived 8-mer PET peptide EPAELTDA] returned an IC50 in assay [3] of 0.04 µM.

Values taken from patent US20100184613A1.
